Reference: publication PMC6486636, “LARP4A recognizes polyA RNA via a novel binding mechanism mediated by disordered regions and involving the PAM2w motif, revealing interplay between PABP, LARP4A and mRNA”

T1: LARP4A 1-50 (Homo sapiens, UniProt Q71RC2 1-50)
T1 chain: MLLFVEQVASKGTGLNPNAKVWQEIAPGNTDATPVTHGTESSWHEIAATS


What was measured:
[1] = target: T2, LARP4A NTD (Homo sapiens, UniProt Q71RC2 1-287); assay: MST; 25 C; agrees with EMSA; Kd only in figure; EMSA: 20 mM Tris pH 7.25, 200 mM KCl, 5% glycerol, 1 mM DTT, 0.1 mg/ml BSA, 0.01 mg/ml E. coli tRNA, on ice, gel at 4 C; MST: 20 mM Tris pH 7.25, 100 mM KCl, 0.2 mM EDTA, 1 mM DTT, 0.05% Tween-20, 25 C; details: protein: recombinant; tags: His tag (TEV) or His-SUMO, cleaved; label: 5' fluorescein (FAM); single strand
[2] = target: T3, LARP4A NTR (Homo sapiens, UniProt Q71RC2 1-111); assay: as above; details: protein: recombinant; tags: His (TEV) or His-SUMO, cleaved; label: 5' fluorescein (FAM); single strand
[3] = target: T3, LARP4A NTR; assay: EMSA; with competitor tRNA; retains majority of affinity; Kd only in figure; EMSA: 20 mM Tris pH 7.25, 200 mM KCl, 5% glycerol, 1 mM DTT, 0.1 mg/ml BSA, 0.01 mg/ml E. coli tRNA, on ice, gel at 4 C; MST: 20 mM Tris pH 7.25, 100 mM KCl, 0.2 mM EDTA, 1 mM DTT, 0.05% Tween-20, 25 C; details: protein: recombinant; tags: His (TEV) or His-SUMO, cleaved; label: 5' 32P (EMSA); unlabelled (NMR, native MS); single strand
[4] = target: T2, LARP4A NTD; assay: EMSA; with competitor tRNA; low micromolar Kd, >100-fold tighter than La module; value only in figure; EMSA: 20 mM Tris pH 7.25, 200 mM KCl, 5% glycerol, 1 mM DTT, 0.1 mg/ml BSA, 0.01 mg/ml E. coli tRNA, on ice, gel at 4 C; MST: 20 mM Tris pH 7.25, 100 mM KCl, 0.2 mM EDTA, 1 mM DTT, 0.05% Tween-20, 25 C; details: protein: recombinant; tags: His tag (TEV) or His-SUMO, cleaved; label: 5' 32P (EMSA); unlabelled (NMR, native MS); single strand
[5] = target: LARP4A La module (Homo sapiens, UniProt Q71RC2 111-287); assay: NMR; small shifts, almost exclusively RRM1; 100 mM KCl; EMSA: 20 mM Tris pH 7.25, 200 mM KCl, 5% glycerol, 1 mM DTT, 0.1 mg/ml BSA, 0.01 mg/ml E. coli tRNA, on ice, gel at 4 C; MST: 20 mM Tris pH 7.25, 100 mM KCl, 0.2 mM EDTA, 1 mM DTT, 0.05% Tween-20, 25 C; details: protein: recombinant; tags: His tag, TEV-cleaved; label: 5' 32P (EMSA); unlabelled (NMR, native MS); single strand
[6] = target: T1, LARP4A 1-50; assay: EMSA; up to 200 uM protein; EMSA: 20 mM Tris pH 7.25, 200 mM KCl, 5% glycerol, 1 mM DTT, 0.1 mg/ml BSA, 0.01 mg/ml E. coli tRNA, on ice, gel at 4 C; MST: 20 mM Tris pH 7.25, 100 mM KCl, 0.2 mM EDTA, 1 mM DTT, 0.05% Tween-20, 25 C; details: protein: recombinant; tags: His-SUMO, cleaved; label: 5' 32P (EMSA); unlabelled (NMR, native MS); single strand
[7] = target: LARP4A 1-79 (Homo sapiens, UniProt Q71RC2 1-79); assay: as above; details: protein: recombinant; tags: His-SUMO, cleaved; label: 5' 32P (EMSA); unlabelled (NMR, native MS); single strand

Sequence of LARP4A La module (Q71RC2 111-287): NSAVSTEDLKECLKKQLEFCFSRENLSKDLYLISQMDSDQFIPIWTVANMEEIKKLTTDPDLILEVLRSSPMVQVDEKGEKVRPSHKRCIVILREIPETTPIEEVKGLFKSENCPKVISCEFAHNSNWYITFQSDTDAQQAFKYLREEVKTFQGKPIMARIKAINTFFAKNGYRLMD

Binder | binding result [1] | binding result [2] | binding result [3] | binding result [4] | binding result [5] | binding result [6] | binding result [7]
AAAAAAAAAAAAAAAAAAAA (ssRNA) [5'FAM-oligoA20] | binds | binds | – | – | – | – | –
AAAAAAAAAAAAAAA (ssRNA) [oligoA15] | – | – | binds | binds | binds | no binding | no binding
